From publication doi:10.1101/641415 come the findings set out here.

For assay [1], the target named is SeMet-labelled SiiA-PD (S. Typhimurium). The assay can be described thus: crystal structure.
Assay [2] deals with SiiA periplasmic domain (SiiA-PD) (S. Typhimurium). The assay can be described thus: SEC.
Assay [3] deals with SiiA-R162A (S. Typhimurium). The assay can be described thus: SEC. In general terms: SEC sorts molecules by how far they enter the pores of the column.
Assay [4] addresses periplasmic region of SiiA (ppr-SiiA, aa 40-210) (S. Typhimurium). The assay can be described thus: SEC.

The stoichiometry N is the number of molecules, sites or subunits per partner or assembly. As to “SeMet-labelled SiiA-PD (domain or fragment)”, the stoichiometry N in assay [1] was determined as 2.

Regarding “SiiA periplasmic domain (SiiA-PD) (domain or fragment)”, the stoichiometry N in assay [2] was found to be 2.

SiiA-R162A (domain or fragment) gave a stoichiometry N in assay [3] of 2.

For “periplasmic region of SiiA (ppr-SiiA, aa 40-210) (domain or fragment)”, the stoichiometry N in assay [4] stood at 2.
